Data taken from PMC9640265 (The Journal of General Physiology, 2022).
Numbering of substitutions follows the chain as printed. Numbers in names are those of the source.

B1: NaKΔ18 (domain or fragment, Bacillus cereus, UniProt Q81HW2 19-114, looked up)
chain: WKDKEFQVLFVLTILTLISGTIFYSTVEGLRPIDALYFSVVTLTTVGDGNFSPQTDFGKIFTILYIFIGIGLVFGFIHKLAVNVQLPSILSNRKKE
B2: L61T NaKΔ18 (domain or fragment, Bacillus cereus, UniProt Q81HW2 19-114, looked up)
chain: B1 chain with L43T
B3: L61A NaKΔ18 (domain or fragment, Bacillus cereus, UniProt Q81HW2 19-114, looked up)
chain: B1 chain with L43A
B4: L35A NaKΔ18 (domain or fragment, Bacillus cereus, UniProt Q81HW2 19-114, looked up)
chain: B1 chain with L17A
B5: L35A/L61A NaKΔ18 (domain or fragment, Bacillus cereus, UniProt Q81HW2 19-114, looked up)
chain: B1 chain with L17A, L43A

Molecular target: the molecule itself
Assay: SEC

Protein | stoichiometry N
B1 | 4
B2 | 4
B3 | 4
B4 | 4
B5 | 4
